{
  "source": "paper PMC12477886",
  "assay_in_all_cases": "BLI",
  "key": {"[1]": {"biological_target": "M15 single reverted mutant G51A (light chain A51 reverted to germline G) (human)"}, "[2]": {"biological_target": "M15 triple mutant (light chain S32I, G51A and T57I all reverted to germline) (human)"}, "[3]": {"biological_target": "M15 single reverted mutant T57I (light chain I57 reverted to germline T) (human)"}, "[4]": {"biological_target": "M15 single reverted mutant S32I (light chain I32 reverted to germline S) (human)"}},
  "data": [
    {"substance": "SARS-CoV-2 WA1/2020 S2 protein (stabilized prefusion spike S2 trimer) (from UniProt P0DTC2) (domain or fragment)", "values": [
      {"measurement": "fold decrease in binding affinity compared with M15", "setting": "[1]", "value": 1.88, "unit": "fold"},
      {"measurement": "fold decrease in binding affinity compared with M15", "setting": "[2]", "value": 12, "unit": "fold"},
      {"measurement": "fold decrease in binding affinity compared with M15", "setting": "[3]", "value": 1.02, "unit": "fold"},
      {"measurement": "fold decrease in binding affinity compared with M15", "setting": "[4]", "value": 1.45, "unit": "fold"}
    ]}
  ]
}
